Test results published in publication doi:10.1101/2024.12.05.627070.

T1: Rad51 (full length, recombinant) (S. cerevisiae), P25454
T1 chain: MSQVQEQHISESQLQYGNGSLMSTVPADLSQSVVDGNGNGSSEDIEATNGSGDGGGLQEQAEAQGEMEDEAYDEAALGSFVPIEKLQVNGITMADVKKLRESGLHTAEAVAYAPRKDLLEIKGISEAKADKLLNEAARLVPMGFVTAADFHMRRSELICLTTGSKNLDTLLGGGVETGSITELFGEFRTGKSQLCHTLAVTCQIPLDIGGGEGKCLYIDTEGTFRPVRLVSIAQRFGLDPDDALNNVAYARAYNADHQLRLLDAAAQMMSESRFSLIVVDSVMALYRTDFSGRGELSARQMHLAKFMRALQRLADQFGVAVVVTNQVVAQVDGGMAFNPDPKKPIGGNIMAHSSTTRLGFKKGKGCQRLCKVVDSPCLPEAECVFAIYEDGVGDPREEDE

B1: Rad51 (full length, recombinant), P25454 1-400 (natural protein)
chain: MSQVQEQHISESQLQYGNGSLMSTVPADLSQSVVDGNGNGSSEDIEATNGSGDGGGLQEQAEAQGEMEDEAYDEAALGSFVPIEKLQVNGITMADVKKLRESGLHTAEAVAYAPRKDLLEIKGISEAKADKLLNEAARLVPMGFVTAADFHMRRSELICLTTGSKNLDTLLGGGVETGSITELFGEFRTGKSQLCHTLAVTCQIPLDIGGGEGKCLYIDTEGTFRPVRLVSIAQRFGLDPDDALNNVAYARAYNADHQLRLLDAAAQMMSESRFSLIVVDSVMALYRTDFSGRGELSARQMHLAKFMRALQRLADQFGVAVVVTNQVVAQVDGGMAFNPDPKKPIGGNIMAHSSTTRLGFKKGKGCQRLCKVVDSPCLPEAECVFAIYEDGVGDPREEDE

Key:
[1] = target: Rad52 (295-408) (S. cerevisiae); test: SEC-SAXS
[2] = target: Rad51 (in yeast cells) (S. cerevisiae) (UniProt P25454); test: co-IP
[3] = target: T1, Rad51 (full length, recombinant) (S. …); test: SEC-SAXS; settings: remark: other sources report otherwise

Molecule | loss of interaction (%) against WT Rad52 [2] | further results
Rad51 (full length, recombinant) (from UniProt P25454 1-400) (natural protein) |  | stoichiometry N [1]: 1
Rad52-K340E-FLAG (natural protein) | 30% | 
Rad52-T349A-FLAG (natural protein) | 85% | 
B1 |  | stoichiometry N [3]: 4
